# Laboratory results as given in patent US20220389088A1 (UNIVERSITY OF FLORIDA RESEARCH FOUNDATION, published 2022).
# T1: recombinant human cANGPTL4 (C-terminus fibrinogen-like signaling peptide of angiopoietin-like 4) (human, UniProt Q9BY76 166-406)
# T1 construct: also called C-terminus of ANGPTL4
# T1 sequence: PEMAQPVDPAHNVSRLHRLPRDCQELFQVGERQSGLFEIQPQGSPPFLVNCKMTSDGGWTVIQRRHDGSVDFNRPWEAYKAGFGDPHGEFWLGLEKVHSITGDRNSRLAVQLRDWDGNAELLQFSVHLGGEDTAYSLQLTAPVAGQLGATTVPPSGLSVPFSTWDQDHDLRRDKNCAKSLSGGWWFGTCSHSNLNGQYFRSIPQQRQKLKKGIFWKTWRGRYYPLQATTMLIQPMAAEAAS
# Molecular target: T1, recombinant human cANGPTL4 (C-terminus …)
# Assay: direct ELISA of hybridoma supernatants
row,binding result,Binder
1,binds,"Ab-A, monoclonal rat-anti-human cANGPTL4 antibody (antibody, V domains shown) VH: QVQLKESGPGLMQPSETLSLTCTVSGFSLTTNGVGWVRQPLGKGLVWMGTIWAGGSTNYNSAVQSRLSISRDTSKSQVFLKMNSLQPEDTGTYYCARQPFYYYDGIHYTRGYFDYWGQGVMVTVSS VL: DVQMTQSPYNLAASPGESVSINCKASKSISKYLAWYQQKLGKANKLLIYDGSTLQSGIPSRFSGSGSGTDFTLTIRSLEPEDFGLYYCQQHNEYPATFGGGTKLELK"

# Molecular target: T1, recombinant human cANGPTL4 (C-terminus …)
# Assay: SPR (Reichert 2SPR), purified recombinant human cANGPTL4
# Protocol: The kinetic binding parameters and affinity of the purified antibodies was determined by surface plasmon resonance (SPR) using Reichert 2SPR machine (Reichert Technologies) and purified recombinant human cANGPTL4 (Table 2).
Kd [nM],koff [s⁻¹],kon [M⁻¹ s⁻¹],Binder
3.74,8.07e-05,21500,"Ab-E, monoclonal rat-anti-human cANGPTL4 antibody (antibody, V domains shown) VH: EVQLVESGGGLVQPGRSMKLSCAASGFTFSSFAMAWVRQAPTKGLEWVASISYDGGNTYYRDSVKGRFTISRDNAKSSLYLQMDSLRSEDTSTYYCASADLIWWYFDFWGPGTMVTVSS VL: DIQMTQSPASLSASLEEIVTITCQASQDIGNWLAWYQQKPGKSPQLLIYGSTSLADGVPSRFSGSRSGTQYSLKISRLQVEDIGIYYCQQASSAPPTFGAGTKLELK"
0.132,3.69e-05,269000,"Ab-B, monoclonal rat-anti-human cANGPTL4 antibody (antibody, V domains shown) VH: EVQLVESGGGLVQPGRSLKLSCAASGFTFSNYGMAWVRQTPTKGLEWVASISTGGSDTYYRDSVKGRFTISRDNAKNTQYLQMDSLRSEDTATYYCARQGFTEDTDYWGQGVMVTVSS VL: DIQMTQSPSFLSASVGDRVTINCKASQNINKYLNWYQQKLGEAPKRLIYNTNNLQTGIPSRFSGSGSGTDYTLTISSLQPEDFATYFCLQHNSFPGTFGGGTKLELK"
0.199,1.35e-05,67800,"Ab-C, monoclonal rat-anti-human cANGPTL4 antibody (antibody, V domains shown) VH: EVQLVDSGGGLVQPGRSLKLSCAASGFTFSNYGMAWVRQIPTKGLEWVASISSGGGNTYYRDSVKGRFTISRDNAKNTQYLQMDSLRSEDTATYYCARDPGITGFDYWGQGVMVTVSS VL: DIQMTQSPSFLSASVGDRVTINCKASQNINKYLNWYQQKLGEAPKRLIYNTNTLQTGIPSRFSGSGSGTDYTLTISSLQPEDFATYFCLQHNSFPGTFGPGTTLELK"
0.48,3.89e-05,81100,"Ab-D, monoclonal rat-anti-human cANGPTL4 antibody (antibody, V domains shown, also called Antibody Ab-D) VH: EVQLVESGGGLVQPGRSLKLSCAASGFTFSNYGMAWVRQTPTKGLEWVASISTGGGNTYYRDSVKGRFTISRDNAKNTQYLQMDSLRSEDTATYYCARDSTVDYFDYWGQGVMVTVSS VL: DIQMTQSPSFLSASVGDRVTINCKASQKINKYLNWYQQKLGEAPKRLIYNTNNLQTGIPSRFSGSGSGTDFTLTISSLQPEDFATYCCLQHNSFPGTFGGGTKLELK"
